Data taken from the supplement of paper PMC7877785.
± gives the uncertainty stated by the source.

Assay: self-splicing fitness, log relative to wild type (ln ratio); higher = more splicing; Tetrahymena group I intron in knt gene, E. coli kanamycin selection, DiMSum; sequences stand for … in CUCUCU…GGAGGGAAAAGUUAUCAGGCAUGCACCUGGUAGCUAGUCUUUAAACCAAUAGAUUGCAUCGGUUUAAAAGGCAAGACCGUCAAAUUGCGGGAAAGGGGUCAACAGCCGUUCAGUACCAAGUCUCAGGGGAAACUUUGAGAUGGCCUUGCAAAGGGUAUGGUAAUAAGCUGACGGACAUGGUCCUAACCACGCAGCCAAGUCCUAAGUCAACAGAUCUUCUGUUGAUAUGGAUGCAGUUCACAGACUAAAUGUCGGUCGGGGAAGAUGUAUUCUUCUCAUAAGAUAUAGUCGGACCUCUCCUUAAUGGGAGCUAGCGGAUGAAGUGAUGCAACACUGGAGCCGCUGGGAACUAAUUUGUAUGCGAAAGUAUAUUGAUUAGUUUUGGAGUACUCGUGGUCG
How it was run: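 Library with all eight P1ex-region intron nucleotides randomised, intron inside the knt kanamycin-resistance gene on pET-22b(+), in E. coli BL21(DE3). Cells grew overnight at 37°C or 30°C on LB agar with or without 25 μg/mL kanamycin (plus 100 μg/mL carbenicillin, 50 μM IPTG, 0.2% rhamnose), in six replicate transformations. Pooled colonies were amplicon-sequenced on Illumina HiSeq 2500. DiMSum fitness is the error-weighted combination of wild-type-normalised replicate fold changes, kanamycin versus none.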

Sequence	self-splicing fitness (ln) (30 °C)	self-splicing fitness (ln) (37 °C)
AGGCAGCAAUAUUACGAUCC	-0.222 ± 0.051	-0.211 ± 0.061
GCGAAGCAAUAUUACGUUGU	-3.58 ± 0.21	-2.58 ± 0.18
GGUUAGCAAUAUUACGCGGA	-1.4 ± 0.31	-1.34 ± 0.23
AUGCAGCAAUAUUACGGUGA	-0.911 ± 0.093	-0.872 ± 0.1
CGGGAGCAAUAUUACGGUGU	-3.71 ± 0.24	-2.48 ± 0.25
AACGAGCAAUAUUACGAUUU	-0.71 ± 0.067	-0.294 ± 0.082
UGACAGCAAUAUUACGUGGU	-3.23 ± 0.15	-2.22 ± 0.12
CACAAGCAAUAUUACGUGAC	-4.87 ± 0.34	-2.77 ± 0.2
ACCUAGCAAUAUUACGUUUU	-2.61 ± 0.091	-1.44 ± 0.1
GGUGAGCAAUAUUACGUGAG	-2.73 ± 0.19	-1.76 ± 0.21
CUUGAGCAAUAUUACGGCGC	-3.72 ± 0.43	-1.55 ± 0.41
AAGUAGCAAUAUUACGUUCU	-0.514 ± 0.062	-0.45 ± 0.09
UACAAGCAAUAUUACGUCAC	-3.37 ± 0.2	-2.41 ± 0.17
AAGCAGCAAUAUUACGGGCA	-0.552 ± 0.072	-0.789 ± 0.077
CCGGAGCAAUAUUACGUACA	-3.36 ± 0.4	–
AAUAAGCAAUAUUACGGUAG	-3.77 ± 0.24	-1.95 ± 0.21
CGUCAGCAAUAUUACGUCCC	-3.43 ± 0.31	-0.834 ± 0.22
UCCAAGCAAUAUUACGGGUC	-3.16 ± 0.13	-2.17 ± 0.14
GGCGAGCAAUAUUACGGUCA	0.0811 ± 0.15	-0.103 ± 0.13
CUGCAGCAAUAUUACGUAAG	-0.296 ± 0.069	0.277 ± 0.08
ACUCAGCAAUAUUACGUCGU	-1.42 ± 0.07	-0.573 ± 0.081
AGCGAGCAAUAUUACGAUUA	-2.78 ± 0.23	-2.15 ± 0.23
GCUUAGCAAUAUUACGACGG	-1.89 ± 0.17	-0.935 ± 0.18
GUGUAGCAAUAUUACGCGUC	-3.17 ± 0.21	-0.598 ± 0.14
UACCAGCAAUAUUACGUGGG	-3.76 ± 0.11	-2.52 ± 0.1

Sequence	self-splicing fitness (ln) (30 °C)	self-splicing fitness (ln) (37 °C)
GCGCAGCAAUAUUACGCAGG	-3.86 ± 0.31	-2.09 ± 0.34
UUCCAGCAAUAUUACGGACC	-1.77 ± 0.14	-0.818 ± 0.16
GCGGAGCAAUAUUACGAGCU	-2.02 ± 0.27	0.307 ± 0.24
AUCUAGCAAUAUUACGAAUC	-4.05 ± 0.36	-3.15 ± 0.27
CUUAAGCAAUAUUACGGUCC	-1.36 ± 0.29	–
UGUUAGCAAUAUUACGGAUA	-1.36 ± 0.13	-1.45 ± 0.12
GCGGAGCAAUAUUACGAAGU	-3.58 ± 0.43	-2.08 ± 0.36
GUCUAGCAAUAUUACGAUAC	0.218 ± 0.22	-0.815 ± 0.22
AUUUAGCAAUAUUACGCAGU	-3 ± 0.28	-2.18 ± 0.26
UUACAGCAAUAUUACGAUGC	-3.18 ± 0.27	-2.95 ± 0.36
CACUAGCAAUAUUACGGACG	0.105 ± 0.064	0.332 ± 0.08
ACCCAGCAAUAUUACGGUCU	-1.12 ± 0.038	-0.171 ± 0.052
AACCAGCAAUAUUACGCAUC	-1.98 ± 0.079	-0.531 ± 0.085
GAAUAGCAAUAUUACGUGCA	-0.851 ± 0.083	-0.317 ± 0.11
ACAAAGCAAUAUUACGUUCA	-1.2 ± 0.068	-0.708 ± 0.076
UAUUAGCAAUAUUACGAGAG	-3.48 ± 0.26	-3.11 ± 0.29
AUGUAGCAAUAUUACGUUAG	-1.89 ± 0.22	-2.97 ± 0.4
GGAUAGCAAUAUUACGUCGC	-1.97 ± 0.17	-1.42 ± 0.21
UCGAAGCAAUAUUACGUCGA	-3.65 ± 0.47	-1.78 ± 0.19
GGAAAGCAAUAUUACGCCUC	-1.14 ± 0.16	-1.03 ± 0.19
CUCAAGCAAUAUUACGCACG	-2.51 ± 0.14	-0.724 ± 0.16
GUGCAGCAAUAUUACGGGGG	-4.19 ± 0.23	-2.58 ± 0.18
CAGUAGCAAUAUUACGCCGG	-0.444 ± 0.21	-0.309 ± 0.28
ACUCAGCAAUAUUACGACAA	-0.977 ± 0.27	-1.18 ± 0.24
UGAAAGCAAUAUUACGUUCA	-2.03 ± 0.13	-1.48 ± 0.14

Sequence	self-splicing fitness (ln) (30 °C)	self-splicing fitness (ln) (37 °C)
ACGGAGCAAUAUUACGUCAU	-4.36 ± 0.37	-3.01 ± 0.37
CUUGAGCAAUAUUACGACGA	-2.83 ± 0.42	-2.51 ± 0.45
AGGCAGCAAUAUUACGAACA	-1.45 ± 0.11	-0.167 ± 0.14
GCUAAGCAAUAUUACGCAUC	-0.687 ± 0.13	-1.06 ± 0.21
UCCCAGCAAUAUUACGCGGU	-3.01 ± 0.13	-0.898 ± 0.087
AGGUAGCAAUAUUACGCACU	-1.32 ± 0.017	-0.862 ± 0.035
AAUGAGCAAUAUUACGCUAA	-3.1 ± 0.36	-1.9 ± 0.2
GUGCAGCAAUAUUACGACCC	-0.76 ± 0.13	0.132 ± 0.18
UUUCAGCAAUAUUACGACCU	-1.28 ± 0.25	-0.834 ± 0.43
GAAGAGCAAUAUUACGACAU	-2.22 ± 0.017	-1.35 ± 0.035
CACGAGCAAUAUUACGAUCA	-2.68 ± 0.22	-2.11 ± 0.19
UUUGAGCAAUAUUACGUAUU	-3.89 ± 0.27	-2.46 ± 0.21
UAGUAGCAAUAUUACGAUGC	-4.61 ± 0.34	-2.56 ± 0.2
UGUCAGCAAUAUUACGGGCC	-0.854 ± 0.12	-0.00781 ± 0.16
CAAUAGCAAUAUUACGUCAG	-1.95 ± 0.066	-1.12 ± 0.07
UCCCAGCAAUAUUACGUCCA	-1.51 ± 0.12	-0.587 ± 0.12
GUCGAGCAAUAUUACGCCCG	-2.96 ± 0.48	-2.03 ± 0.4
UCUGAGCAAUAUUACGGGCU	–	-3.79 ± 0.42
ACUCAGCAAUAUUACGGUGA	-2.73 ± 0.12	-1.23 ± 0.095
UGACAGCAAUAUUACGAUAU	-2.67 ± 0.16	-1.9 ± 0.14
UCUUAGCAAUAUUACGCCUU	–	-1.86 ± 0.3
UUGGAGCAAUAUUACGUGGU	-2.84 ± 0.36	-2.56 ± 0.32
CGAAAGCAAUAUUACGUUGA	-3.72 ± 0.18	-2.28 ± 0.16
ACCCAGCAAUAUUACGGUAU	-0.563 ± 0.047	-0.154 ± 0.068
CGUAAGCAAUAUUACGUUCC	-2.63 ± 0.3	–

Sequence	self-splicing fitness (ln) (30 °C)	self-splicing fitness (ln) (37 °C)
CCUGAGCAAUAUUACGGGCA	-2.93 ± 0.19	-1.83 ± 0.17
AUUUAGCAAUAUUACGAAUG	-2.39 ± 0.19	-0.72 ± 0.21
ACCGAGCAAUAUUACGGUAG	-3.75 ± 0.23	-2.73 ± 0.24
GAACAGCAAUAUUACGUGCU	-2.89 ± 0.14	-1.88 ± 0.14
ACGGAGCAAUAUUACGCUGA	-1.48 ± 0.17	-1.9 ± 0.21
UCAGAGCAAUAUUACGUACG	-1.96 ± 0.24	-1.96 ± 0.28
GCUUAGCAAUAUUACGGCAA	-2.6 ± 0.17	-2.6 ± 0.17
UCGCAGCAAUAUUACGUGAC	-5.1 ± 0.38	-2.41 ± 0.26
UUCAAGCAAUAUUACGAGUC	-3.3 ± 0.31	-1.93 ± 0.26
GUCGAGCAAUAUUACGUGGC	-3.63 ± 0.2	-1.09 ± 0.17
UAAAAGCAAUAUUACGUCCG	-0.59 ± 0.082	0.205 ± 0.1
CACCAGCAAUAUUACGUGCA	-4.11 ± 0.17	-2.56 ± 0.15
GGCUAGCAAUAUUACGUCCU	-1.68 ± 0.1	-1.3 ± 0.13
UGAAAGCAAUAUUACGGCGU	-1.12 ± 0.095	0.0159 ± 0.11
UACCAGCAAUAUUACGGUCU	-0.501 ± 0.056	0.24 ± 0.067
AACAAGCAAUAUUACGAUCU	-0.25 ± 0.062	-0.072 ± 0.08
CGGCAGCAAUAUUACGGGGG	-3 ± 0.13	-1.86 ± 0.16
GCUUAGCAAUAUUACGAAGG	-0.605 ± 0.12	-0.64 ± 0.21
GAUCAGCAAUAUUACGGGAA	-0.882 ± 0.13	-1.04 ± 0.13
ACUGAGCAAUAUUACGUCAA	-3.09 ± 0.23	-2.31 ± 0.19
UGCGAGCAAUAUUACGAAAA	-1.24 ± 0.27	–
AUUGAGCAAUAUUACGCGCU	-2.3 ± 0.29	-1.29 ± 0.41
